Patent US5843648
One block for each substance: values may come before it.

Columns and labels:
[1] = target: MART-1 presented by HLA-A2 (COS cells transfected with MART-1 plus HLA-A2) (human) (UniProt Q16655)
[2] = target: gp100 presented by HLA-A2 (COS cells transfected with gp100 plus HLA-A2) (human) (UniProt P40967)
[3] = target: gp75 presented by HLA-A31 (COS cells transfected with gp75 plus HLA-A31) (human) (UniProt P17643)
[4] = target: β-gal with HLA-A24 (COS-7 cells transfected with β-gal + HLA-A24) (human)
[5] = target: tyrosinase presented by HLA-A24 (COS-7 cells transfected with tyrosinase + HLA-A24) (human)
[6] = target: tyrosinase peptide T10199 (…) on HLA-A24+ 888 EBVB cells (human)
[7] = target: tyrosinase peptide T9181 (…) on HLA-A24+ 888 EBVB cells (human)
[8] = target: tyrosinase peptide T9180 (…) on HLA-A24+ 888 EBVB cells (human)
[9] = target: tyrosinase peptide T10180 (…) on HLA-A24+ 888 EBVB cells (human)
[10] = target: tyrosinase peptide T10206 (…) presented by HLA-A24 on 888 EBVB cells (human)
[11] = target: tyrosinase peptide T10209 (…) on HLA-A24+ 888 EBVB cells (human)
[12] = target: tyrosinase peptide T9206 (…) presented by HLA-A24 on 888 EBVB cells (human)
[13] = target: tyrosinase peptide T9177 (…) on HLA-A24+ 888 EBVB cells (human)
[14] = target: tyrosinase peptide T9199 (…) on HLA-A24+ 888 EBVB cells (human)
[15] = target: tyrosinase peptide T10213 (…) on HLA-A24+ 888 EBVB cells (human)
[16] = target: tyrosinase peptide T10166 (…) on HLA-A24+ 888 EBVB cells (human)
[17] = target: β-gal with HLA-A24 (COS-7 cells transfected with β-gal + HLA-A24) (human); remark: listed apart in the source
[18] = target: Clone 1 (full length p15 RT-PCR product from 888 EBV B cells) presented by HLA-A24 on COS-7 cells (human)
[19] = target: Clone 2 (truncated p15 RT-PCR product from 888 EBV B cells) presented by HLA-A24 on COS-7 cells (human)
[20] = target: p15 presented by HLA-A24 (293-A24 or COS-7 cells transfected with the p15 cDNA and HLA-A24) (human)
[21] = target: tyrosinase presented by HLA-A24 (COS-7 cells transfected with tyrosinase + HLA-A24) (human); remark: listed apart in the source
[22] = target: gp100 with HLA-A24 (COS-7 cells transfected with gp100 + HLA-A24) (human) (UniProt P40967)
[23] = target: gp75 with HLA-A24 (COS-7 cells transfected with gp75 + HLA-A24) (human) (UniProt P17643)
[24] = target: MART-1 with HLA-A24 (COS-7 cells transfected with MART-1 + HLA-A24) (human) (UniProt Q16655)
[25] = target: p15 9-18 peptide … presented by HLA-A24 on 888 EBV B cells (human)
[26] = target: p15 10-18 peptide … presented by HLA-A24 on 888 EBV B cells (human)
[27] = target: p15 9-18 peptide … presented by HLA-A24 on 888 EBV B cells (human); remark: listed apart in the source
[28] = target: p15 10-18 peptide … presented by HLA-A24 on 888 EBV B cells (human); remark: listed apart in the source

Substance: TIL 1235 (cells without a defined receptor)
GM-CSF [1]: 1800 pg/mL

Substance: TIL 586 (cells without a defined receptor)
GM-CSF [3]: 770 pg/mL

Substance: TIL 1413 (cells without a defined receptor)
GM-CSF Secretion [4]: 30 pg/mL
GM-CSF Secretion [5]: 292 pg/mL
% Specific Lysis (E:T 40:1) and GM-CSF (pg/ml) (% specific lysis) [6]: 1
% Specific Lysis (E:T 40:1) and GM-CSF (pg/ml) (% specific lysis) [7]: -1
% Specific Lysis (E:T 40:1) and GM-CSF (pg/ml) (% specific lysis) [8]: 2
% Specific Lysis (E:T 40:1) and GM-CSF (pg/ml) (% specific lysis) [9]: 1
% Specific Lysis (E:T 40:1) and GM-CSF (pg/ml) (% specific lysis) [10]: 20
% Specific Lysis (E:T 40:1) and GM-CSF (pg/ml) (% specific lysis) [11]: 0
% specific lysis (E:T 40:1) (% specific lysis) [12]: 26
% Specific Lysis (E:T 40:1) and GM-CSF (pg/ml) (% specific lysis) [13]: 0
% Specific Lysis (E:T 40:1) and GM-CSF (pg/ml) (% specific lysis) [14]: 0
% Specific Lysis (E:T 40:1) and GM-CSF (pg/ml) (% specific lysis) [15]: 1
% Specific Lysis (E:T 40:1) and GM-CSF (pg/ml) (% specific lysis) [16]: -1

Substance: TIL 1290 (cells without a defined receptor)
GM-CSF (pg/ml), Expt. 1 and Expt. 2 [17]: 40 pg/mL
GM-CSF (pg/ml), Expt. 1 and Expt. 2 [18]: 740 pg/mL
GM-CSF (pg/ml), Expt. 1 and Expt. 2 [19]: 300 pg/mL
GM-CSF [20]: 400 pg/mL
GM-CSF [21]: 20 pg/mL
GM-CSF [22]: 10 pg/mL
GM-CSF [23]: 20 pg/mL
GM-CSF [24]: 20 pg/mL
minimum peptide concentration sensitizing 888 EBV B cells for lysis (51Cr release) [25]: 10 ng/mL
minimum peptide concentration stimulating significant GM-CSF release [25]: 10 ng/mL
minimum peptide concentration sensitizing 888 EBV B cells for lysis (51Cr release) [26]: 1 ng/mL
minimum peptide concentration stimulating significant GM-CSF release [26]: 10 ng/mL
GM-CSF (pg/ml) at 10 ug/ml peptide [27]: 780 pg/mL
GM-CSF (pg/ml) at 10 ug/ml peptide [28]: 910 pg/mL

Now from value to substance:

GM-CSF [2]: 1500 pg/mL
Substance: TIL 1200 (cells without a defined receptor)

GM-CSF [20]: 60 pg/mL
GM-CSF [21]: 1500 pg/mL
GM-CSF [22]: 120 pg/mL
GM-CSF [23]: 130 pg/mL
GM-CSF [24]: 140 pg/mL
Substance: TIL 888 (cells without a defined receptor)
